Values of other authors in paper PMC4893024.

Biological target: Cys39 (UniProt position 39, TSPYECGFDPM)
Assay: not stated (the cited study [29] is described as SH-reagent sensitivity/labelling of bovine heart SMP with N-ethylmaleimide and N-fluorescein maleimide)
Settings: Deactive (D) form of complex I, with Cys-39 exposed

## NADH-ubiquinone oxidoreductase chain 3 (ND3 subunit of mitochondrial complex I) (Bos taurus)
  pKa: 10.2
